Data reported in patent US20250171562A1 (ALK ABELL, published 2025).

B1: CIgG4B2A1(G4S)3 (Fc fusion)
chain 1: GPPCPPCPAPEFLGGPSVFLFPPKPKDTLMISRTPEVTCVVVDVSQEDPEVQFNWYVDGVEVHNAKTKPREEQFNSTYRVVSVLTVLHQDWLNGKEYKCKVSNKGLPSSIEKTISKAKGQPREPQVYTLPPCQEEMTKNQVSLWCLVKGFYPSDIAVEWESNGQPENNYKTTPPVLDSDGSFFLYSRLTVDKSRWQEGNVFSCSVMHEALHNHYTQKSLSLSLGKGGGGSGGGGSGGGGSQVQLVESGGGLVQAGGSLRLSCAVFGSTFSNNVADWYRQAPGKQRELVARISASGATREYGDSVKGRFTISRDDAKNTMYLQMNNLKPEDTAVYRCHKIEWEDLSRKDYWGQGTQVTVS
chain 2: GPPCPPCPAPEFLGGPSVFLFPPKPKDTLMISRTPEVTCVVVDVSQEDPEVQFNWYVDGVEVHNAKTKPREEQFNSTYRVVSVLTVLHQDWLNGKEYKCKVSNKGLPSSIEKTISKAKGQPREPQVCTLPPSQEEMTKNQVSLSCAVKGFYPSDIAVEWESNGQPENNYKTTPPVLDSDGSFFLVSRLTVDKSRWQEGNVFSCSVMHEALHNHYTQKSLSLSLGKGGGGSGGGGSGGGGSEVQLLESGGGLVQPGGSLRLSCAASGFTFGNYDMAWVRQAPGKRPEWVSSIDTGGDITHYADSVKGRFTISRDNAKNTLYLQMNSLRPEDTAVYWCATDEEYALGPNEFDYYGQGTLVTVSS
B2: CIgG4B3A1(G4S)3 (Fc fusion)
chain 1: GPPCPPCPAPEFLGGPSVFLFPPKPKDTLMISRTPEVTCVVVDVSQEDPEVQFNWYVDGVEVHNAKTKPREEQFNSTYRVVSVLTVLHQDWLNGKEYKCKVSNKGLPSSIEKTISKAKGQPREPQVYTLPPCQEEMTKNQVSLWCLVKGFYPSDIAVEWESNGQPENNYKTTPPVLDSDGSFFLYSRLTVDKSRWQEGNVFSCSVMHEALHNHYTQKSLSLSLGKGGGGSGGGGSGGGGSDVQLQESGGGLVQAGGSLRLSCAASGFIFRLAGMSWVRQAPGKGFEWVSGITMDGSTTNYADSVKGRFTISRDNSKNRLYLQMNSLKPEDTAVYYCARGAKGGYNDPRGQGTQVTVS
chain 2: B1 chain 2
notes: also called CIgG4B3A1(GS)3
B3: CIgG4B3A1(G4S)1 (Fc fusion)
chain 1: GPPCPPCPAPEFLGGPSVFLFPPKPKDTLMISRTPEVTCVVVDVSQEDPEVQFNWYVDGVEVHNAKTKPREEQFNSTYRVVSVLTVLHQDWLNGKEYKCKVSNKGLPSSIEKTISKAKGQPREPQVYTLPPCQEEMTKNQVSLWCLVKGFYPSDIAVEWESNGQPENNYKTTPPVLDSDGSFFLYSRLTVDKSRWQEGNVFSCSVMHEALHNHYTQKSLSLSLGKGGGGSDVQLQESGGGLVQAGGSLRLSCAASGFIFRLAGMSWVRQAPGKGFEWVSGITMDGSTTNYADSVKGRFTISRDNSKNRLYLQMNSLKPEDTAVYYCARGAKGGYNDPRGQGTQVTVS
chain 2: GPPCPPCPAPEFLGGPSVFLFPPKPKDTLMISRTPEVTCVVVDVSQEDPEVQFNWYVDGVEVHNAKTKPREEQFNSTYRVVSVLTVLHQDWLNGKEYKCKVSNKGLPSSIEKTISKAKGQPREPQVCTLPPSQEEMTKNQVSLSCAVKGFYPSDIAVEWESNGQPENNYKTTPPVLDSDGSFFLVSRLTVDKSRWQEGNVFSCSVMHEALHNHYTQKSLSLSLGKGGGGSEVQLLESGGGLVQPGGSLRLSCAASGFTFGNYDMAWVRQAPGKRPEWVSSIDTGGDITHYADSVKGRFTISRDNAKNTLYLQMNSLRPEDTAVYWCATDEEYALGPNEFDYYGQGTLVTVSS
notes: also called CIgG4B3A1(GS)1
B4: CIgG4D1A1(G4S)1 (Fc fusion)
chain 1: GPPCPPCPAPEFLGGPSVFLFPPKPKDTLMISRTPEVTCVVVDVSQEDPEVQFNWYVDGVEVHNAKTKPREEQFNSTYRVVSVLTVLHQDWLNGKEYKCKVSNKGLPSSIEKTISKAKGQPREPQVYTLPPCQEEMTKNQVSLWCLVKGFYPSDIAVEWESNGQPENNYKTTPPVLDSDGSFFLYSRLTVDKSRWQEGNVFSCSVMHEALHNHYTQKSLSLSLGKGGGGSDVQLQESGGGLVQAGGSLRLSCAASGLTFSRCDMGWFRQAPGKEREFVARISANGASTHYADFVKGRFTISRDNAKNTVYLQMNYLKPEDTAVYICAAARVPVTWQLYDYWGQGTQVTVS
chain 2: B3 chain 2
B5: CIgG4B2A1(G4S)2 (Fc fusion)
chain 1: GPPCPPCPAPEFLGGPSVFLFPPKPKDTLMISRTPEVTCVVVDVSQEDPEVQFNWYVDGVEVHNAKTKPREEQFNSTYRVVSVLTVLHQDWLNGKEYKCKVSNKGLPSSIEKTISKAKGQPREPQVYTLPPCQEEMTKNQVSLWCLVKGFYPSDIAVEWESNGQPENNYKTTPPVLDSDGSFFLYSRLTVDKSRWQEGNVFSCSVMHEALHNHYTQKSLSLSLGKGGGGSGGGGSQVQLVESGGGLVQAGGSLRLSCAVFGSTFSNNVADWYRQAPGKQRELVARISASGATREYGDSVKGRFTISRDDAKNTMYLQMNNLKPEDTAVYRCHKIEWEDLSRKDYWGQGTQVTVS
chain 2: GPPCPPCPAPEFLGGPSVFLFPPKPKDTLMISRTPEVTCVVVDVSQEDPEVQFNWYVDGVEVHNAKTKPREEQFNSTYRVVSVLTVLHQDWLNGKEYKCKVSNKGLPSSIEKTISKAKGQPREPQVCTLPPSQEEMTKNQVSLSCAVKGFYPSDIAVEWESNGQPENNYKTTPPVLDSDGSFFLVSRLTVDKSRWQEGNVFSCSVMHEALHNHYTQKSLSLSLGKGGGGSGGGGSEVQLLESGGGLVQPGGSLRLSCAASGFTFGNYDMAWVRQAPGKRPEWVSSIDTGGDITHYADSVKGRFTISRDNAKNTLYLQMNSLRPEDTAVYWCATDEEYALGPNEFDYYGQGTLVTVSS
B6: CIgG4B3A1(G4S)2 (Fc fusion)
chain 1: GPPCPPCPAPEFLGGPSVFLFPPKPKDTLMISRTPEVTCVVVDVSQEDPEVQFNWYVDGVEVHNAKTKPREEQFNSTYRVVSVLTVLHQDWLNGKEYKCKVSNKGLPSSIEKTISKAKGQPREPQVYTLPPCQEEMTKNQVSLWCLVKGFYPSDIAVEWESNGQPENNYKTTPPVLDSDGSFFLYSRLTVDKSRWQEGNVFSCSVMHEALHNHYTQKSLSLSLGKGGGGSGGGGSDVQLQESGGGLVQAGGSLRLSCAASGFIFRLAGMSWVRQAPGKGFEWVSGITMDGSTTNYADSVKGRFTISRDNSKNRLYLQMNSLKPEDTAVYYCARGAKGGYNDPRGQGTQVTVS
chain 2: B5 chain 2
notes: also called CIgG4B3A1(GS)2
B7: CIgG4B3A1(RS) (Fc fusion)
chain 1: GPPCPPCPAPEFLGGPSVFLFPPKPKDTLMISRTPEVTCVVVDVSQEDPEVQFNWYVDGVEVHNAKTKPREEQFNSTYRVVSVLTVLHQDWLNGKEYKCKVSNKGLPSSIEKTISKAKGQPREPQVYTLPPCQEEMTKNQVSLWCLVKGFYPSDIAVEWESNGQPENNYKTTPPVLDSDGSFFLYSRLTVDKSRWQEGNVFSCSVMHEALHNHYTQKSLSLSLGKRSDVQLQESGGGLVQAGGSLRLSCAASGFIFRLAGMSWVRQAPGKGFEWVSGITMDGSTTNYADSVKGRFTISRDNSKNRLYLQMNSLKPEDTAVYYCARGAKGGYNDPRGQGTQVTVS
chain 2: GPPCPPCPAPEFLGGPSVFLFPPKPKDTLMISRTPEVTCVVVDVSQEDPEVQFNWYVDGVEVHNAKTKPREEQFNSTYRVVSVLTVLHQDWLNGKEYKCKVSNKGLPSSIEKTISKAKGQPREPQVCTLPPSQEEMTKNQVSLSCAVKGFYPSDIAVEWESNGQPENNYKTTPPVLDSDGSFFLVSRLTVDKSRWQEGNVFSCSVMHEALHNHYTQKSLSLSLGKRSEVQLLESGGGLVQPGGSLRLSCAASGFTFGNYDMAWVRQAPGKRPEWVSSIDTGGDITHYADSVKGRFTISRDNAKNTLYLQMNSLRPEDTAVYWCATDEEYALGPNEFDYYGQGTLVTVSS
B8: CIgG4D1A1(RS) (Fc fusion)
chain 1: GPPCPPCPAPEFLGGPSVFLFPPKPKDTLMISRTPEVTCVVVDVSQEDPEVQFNWYVDGVEVHNAKTKPREEQFNSTYRVVSVLTVLHQDWLNGKEYKCKVSNKGLPSSIEKTISKAKGQPREPQVYTLPPCQEEMTKNQVSLWCLVKGFYPSDIAVEWESNGQPENNYKTTPPVLDSDGSFFLYSRLTVDKSRWQEGNVFSCSVMHEALHNHYTQKSLSLSLGKRSDVQLQESGGGLVQAGGSLRLSCAASGLTFSRCDMGWFRQAPGKEREFVARISANGASTHYADFVKGRFTISRDNAKNTVYLQMNYLKPEDTAVYICAAARVPVTWQLYDYWGQGTQVTVS
chain 2: B7 chain 2

Target: T1, recombinant human IgE (human, UniProt P01854-1 1-428)
T1 construct: made in-house (ALK); preloaded on immobilised FcεRIα in the displacement ELISA
T1 sequence (P01854 other isoform, or with tags, fused parts or gaps): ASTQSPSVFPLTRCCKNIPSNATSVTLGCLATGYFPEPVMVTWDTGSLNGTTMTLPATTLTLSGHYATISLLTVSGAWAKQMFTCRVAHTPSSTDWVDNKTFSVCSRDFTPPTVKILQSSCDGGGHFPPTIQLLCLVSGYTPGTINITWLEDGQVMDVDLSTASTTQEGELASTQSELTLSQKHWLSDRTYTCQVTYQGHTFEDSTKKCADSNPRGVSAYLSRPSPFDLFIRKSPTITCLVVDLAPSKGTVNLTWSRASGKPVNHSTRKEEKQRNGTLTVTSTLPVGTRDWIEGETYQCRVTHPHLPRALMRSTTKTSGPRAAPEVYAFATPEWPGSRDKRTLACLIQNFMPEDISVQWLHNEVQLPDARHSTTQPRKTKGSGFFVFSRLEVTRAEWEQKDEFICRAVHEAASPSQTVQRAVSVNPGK
Experiment: IgE-FcεRIα displacement ELISA
Procedure, shortened: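 sdAbs at pM–μM were incubated 1 h on preformed complexes of 13 ng/ml recombinant human IgE with avi-tag-biotinylated human FcεRIα captured on streptavidin.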

Row | Binder | EC50 [nM] | Max effect [%]
1 | B1 | 2.1 | > 95
2 | B2 | 5.4 | 95
3 | B3 |  | 45
4 | B4 | 52 | 90
5 | B5 | 0.7 | > 95
6 | B6 | 32 | 85
7 | B7 |  | 0
8 | B8 |  | 30
